Experimental data from the supplement of paper PMC9112550, “Optimization of the antimicrobial peptide Bac7 by deep mutational scanning” (BMC Biology, 2022).
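Further: peptides expressed intracellularly from a pBAD plasmid library in pooled LB shake-flask culture, induced with 0.3% L-arabinose, DNA abundance read by NGS, three biological replicates, DESeq2 with apeglm shrinkage.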

The sequences below were run on Escherichia coli TOP10 (assay: shrunken log2 fold change of peptide-encoding DNA abundance (4.5 h post-induction vs induction); higher = less antimicrobial activity (less host growth inhibition)). Details: time post-induction: 4.5 h; library: site-saturation at positions 5, 18, 19, 20.
With RRIRWRPPRLPRPRPRPPGSPRP the “shrunken log2 fold change” value was 0.333. In the case of RRIRWRPPRLPRPRPRPPHNPRP, the “shrunken log2 fold change” value is reported as 0.527. In the case of RRIRWRPPRLPRPRPRPPHTPRP, the “shrunken log2 fold change” value is reported as 0.494. For RRIRWRPPRLPRPRPRPPIFPRP, the “shrunken log2 fold change” value was 0.488. In the case of RRIRWRPPRLPRPRPRPPKAPRP, the “shrunken log2 fold change” value is reported as -0.0568. In the case of RRIRWRPPRLPRPRPRPPKRPRP, the “shrunken log2 fold change” value is reported as 0.388. RRIRWRPPRLPRPRPRPPLVPRP was tested, and the “shrunken log2 fold change” value was 0.443. With RRIRWRPPRLPRPRPRPPMAPRP the “shrunken log2 fold change” value was 0.598. RRIRWRPPRLPRPRPRPPNWPRP was tested, and the “shrunken log2 fold change” value was 0.603. In the case of RRIRWRPPRLPRPRPRPPPTPRP, the “shrunken log2 fold change” value is reported as 1.59. With RRIRWRPPRLPRPRPRPPQHPRP the “shrunken log2 fold change” value was 0.275. RRIRWRPPRLPRPRPRPPQIPRP was tested, and the “shrunken log2 fold change” value was 0.117. For RRIRWRPPRLPRPRPRPPQMPRP, the “shrunken log2 fold change” value was 0.592. RRIRWRPPRLPRPRPRPPQSPRP was tested, and the “shrunken log2 fold change” value was 0.128. In the case of RRIRWRPPRLPRPRPRPPRDPRP, the “shrunken log2 fold change” value is reported as 0.661. RRIRWRPPRLPRPRPRPPRKPRP was tested, and the “shrunken log2 fold change” value was 0.731. With RRIRWRPPRLPRPRPRPPRNPRP the “shrunken log2 fold change” value was 0.794. For RRIRWRPPRLPRPRPRPPRPPRP, the “shrunken log2 fold change” value was 0.859. RRIRWRPPRLPRPRPRPPTQPRP was tested, and the “shrunken log2 fold change” value was 0.312. RRIRWRPPRLPRPRPRPPVGPRP was tested, and the “shrunken log2 fold change” value was 0.167. For RRIRWRPPRLPRPRPRPPWLPRP, the “shrunken log2 fold change” value was 0.526. In the case of RRIRWRPPRLPRPRPRPQCNPRP, the “shrunken log2 fold change” value is reported as -0.0929. For RRIRWRPPRLPRPRPRPQDKPRP, the “shrunken log2 fold change” value was -0.208. With RRIRWRPPRLPRPRPRPQDNPRP the “shrunken log2 fold change” value was -0.421. For RRIRWRPPRLPRPRPRPQDWPRP, the “shrunken log2 fold change” value was 0.36. RRIRWRPPRLPRPRPRPQELPRP was tested, and the “shrunken log2 fold change” value was -0.0075. For RRIRWRPPRLPRPRPRPQEMPRP, the “shrunken log2 fold change” value was -0.0845. For RRIRWRPPRLPRPRPRPQGIPRP, the “shrunken log2 fold change” value was 0.102. With RRIRWRPPRLPRPRPRPQIIPRP the “shrunken log2 fold change” value was -0.805. For RRIRWRPPRLPRPRPRPQITPRP, the “shrunken log2 fold change” value was -0.216. For RRIRWRPPRLPRPRPRPQMAPRP, the “shrunken log2 fold change” value was 0.242. With RRIRWRPPRLPRPRPRPQMQPRP the “shrunken log2 fold change” value was 0.0894. In the case of RRIRWRPPRLPRPRPRPQNHPRP, the “shrunken log2 fold change” value is reported as -0.585. For RRIRWRPPRLPRPRPRPQNLPRP, the “shrunken log2 fold change” value was -0.103. For RRIRWRPPRLPRPRPRPQNYPRP, the “shrunken log2 fold change” value was -0.445. RRIRWRPPRLPRPRPRPQQNPRP was tested, and the “shrunken log2 fold change” value was -0.00819. With RRIRWRPPRLPRPRPRPQRDPRP the “shrunken log2 fold change” value was -0.0245. RRIRWRPPRLPRPRPRPQRHPRP was tested, and the “shrunken log2 fold change” value was 0.163. For RRIRWRPPRLPRPRPRPQRIPRP, the “shrunken log2 fold change” value was 0.107. In the case of RRIRWRPPRLPRPRPRPQRQPRP, the “shrunken log2 fold change” value is reported as 0.123. With RRIRWRPPRLPRPRPRPQSVPRP the “shrunken log2 fold change” value was 0.119. In the case of RRIRWRPPRLPRPRPRPQTHPRP, the “shrunken log2 fold change” value is reported as 1. In the case of RRIRWRPPRLPRPRPRPQTLPRP, the “shrunken log2 fold change” value is reported as 0.132. RRIRWRPPRLPRPRPRPQTMPRP was tested, and the “shrunken log2 fold change” value was -0.00112. In the case of RRIRWRPPRLPRPRPRPQTPPRP, the “shrunken log2 fold change” value is reported as 1.07. With RRIRWRPPRLPRPRPRPQWIPRP the “shrunken log2 fold change” value was 0.0797. With RRIRWRPPRLPRPRPRPRANPRP the “shrunken log2 fold change” value was 0.425. With RRIRWRPPRLPRPRPRPRCVPRP the “shrunken log2 fold change” value was 0.117. With RRIRWRPPRLPRPRPRPRDMPRP the “shrunken log2 fold change” value was -0.255. In the case of RRIRWRPPRLPRPRPRPREWPRP, the “shrunken log2 fold change” value is reported as 1.22. For RRIRWRPPRLPRPRPRPRFSPRP, the “shrunken log2 fold change” value was 0.0681. With RRIRWRPPRLPRPRPRPRGGPRP the “shrunken log2 fold change” value was 0.984. RRIRWRPPRLPRPRPRPRHAPRP was tested, and the “shrunken log2 fold change” value was 0.0251. RRIRWRPPRLPRPRPRPRICPRP was tested, and the “shrunken log2 fold change” value was -0.0691. For RRIRWRPPRLPRPRPRPRIWPRP, the “shrunken log2 fold change” value was -0.0288. For RRIRWRPPRLPRPRPRPRKEPRP, the “shrunken log2 fold change” value was 0.0466. For RRIRWRPPRLPRPRPRPRKHPRP, the “shrunken log2 fold change” value was 0.15. With RRIRWRPPRLPRPRPRPRKMPRP the “shrunken log2 fold change” value was 0.382. RRIRWRPPRLPRPRPRPRMEPRP was tested, and the “shrunken log2 fold change” value was 0.439. In the case of RRIRWRPPRLPRPRPRPRMQPRP, the “shrunken log2 fold change” value is reported as 0.329. For RRIRWRPPRLPRPRPRPRPDPRP, the “shrunken log2 fold change” value was 0.518. For RRIRWRPPRLPRPRPRPRQNPRP, the “shrunken log2 fold change” value was 0.448. With RRIRWRPPRLPRPRPRPRQQPRP the “shrunken log2 fold change” value was -0.0369. In the case of RRIRWRPPRLPRPRPRPRVIPRP, the “shrunken log2 fold change” value is reported as -0.233. For RRIRWRPPRLPRPRPRPSARPRP, the “shrunken log2 fold change” value was 0.54. For RRIRWRPPRLPRPRPRPSCDPRP, the “shrunken log2 fold change” value was 0.574. With RRIRWRPPRLPRPRPRPSCHPRP the “shrunken log2 fold change” value was -0.066. RRIRWRPPRLPRPRPRPSCRPRP was tested, and the “shrunken log2 fold change” value was 0.0511. RRIRWRPPRLPRPRPRPSDYPRP was tested, and the “shrunken log2 fold change” value was 0.0192. With RRIRWRPPRLPRPRPRPSFNPRP the “shrunken log2 fold change” value was -0.365. With RRIRWRPPRLPRPRPRPSIFPRP the “shrunken log2 fold change” value was -0.396. With RRIRWRPPRLPRPRPRPSKSPRP the “shrunken log2 fold change” value was -0.0449. In the case of RRIRWRPPRLPRPRPRPSLKPRP, the “shrunken log2 fold change” value is reported as 0.0451. With RRIRWRPPRLPRPRPRPSMIPRP the “shrunken log2 fold change” value was -0.12. RRIRWRPPRLPRPRPRPSMRPRP was tested, and the “shrunken log2 fold change” value was 0.707. For RRIRWRPPRLPRPRPRPSMTPRP, the “shrunken log2 fold change” value was 0.178. RRIRWRPPRLPRPRPRPSQRPRP was tested, and the “shrunken log2 fold change” value was -0.0741. With RRIRWRPPRLPRPRPRPSQVPRP the “shrunken log2 fold change” value was -0.0348. RRIRWRPPRLPRPRPRPSSCPRP was tested, and the “shrunken log2 fold change” value was -0.0941. In the case of RRIRWRPPRLPRPRPRPSSKPRP, the “shrunken log2 fold change” value is reported as -0.369. RRIRWRPPRLPRPRPRPSVRPRP was tested, and the “shrunken log2 fold change” value was 0.117. RRIRWRPPRLPRPRPRPTANPRP was tested, and the “shrunken log2 fold change” value was 0.399. For RRIRWRPPRLPRPRPRPTCFPRP, the “shrunken log2 fold change” value was 0.0863. In the case of RRIRWRPPRLPRPRPRPTCIPRP, the “shrunken log2 fold change” value is reported as 0.248. RRIRWRPPRLPRPRPRPTDMPRP was tested, and the “shrunken log2 fold change” value was 0.00348. In the case of RRIRWRPPRLPRPRPRPTDPPRP, the “shrunken log2 fold change” value is reported as 0.374. For RRIRWRPPRLPRPRPRPTDWPRP, the “shrunken log2 fold change” value was 0.581. With RRIRWRPPRLPRPRPRPTENPRP the “shrunken log2 fold change” value was 0.0907. For RRIRWRPPRLPRPRPRPTFTPRP, the “shrunken log2 fold change” value was 0.195. With RRIRWRPPRLPRPRPRPTGDPRP the “shrunken log2 fold change” value was 0.241. With RRIRWRPPRLPRPRPRPTGIPRP the “shrunken log2 fold change” value was 0.0938. RRIRWRPPRLPRPRPRPTGWPRP was tested, and the “shrunken log2 fold change” value was 0.594. For RRIRWRPPRLPRPRPRPTIFPRP, the “shrunken log2 fold change” value was 0.0443. In the case of RRIRWRPPRLPRPRPRPTKQPRP, the “shrunken log2 fold change” value is reported as 0.0132. For RRIRWRPPRLPRPRPRPTLIPRP, the “shrunken log2 fold change” value was 0.0335. For RRIRWRPPRLPRPRPRPTLWPRP, the “shrunken log2 fold change” value was 0.611. With RRIRWRPPRLPRPRPRPTMNPRP the “shrunken log2 fold change” value was -0.225. For RRIRWRPPRLPRPRPRPTMQPRP, the “shrunken log2 fold change” value was 0.13. RRIRWRPPRLPRPRPRPTMWPRP was tested, and the “shrunken log2 fold change” value was 0.615. With RRIRWRPPRLPRPRPRPTMYPRP the “shrunken log2 fold change” value was 0.00431. In the case of RRIRWRPPRLPRPRPRPTNEPRP, the “shrunken log2 fold change” value is reported as 0.225. With RRIRWRPPRLPRPRPRPTPCPRP the “shrunken log2 fold change” value was 0.212. In the case of RRIRWRPPRLPRPRPRPTPFPRP, the “shrunken log2 fold change” value is reported as 0.153. In the case of RRIRWRPPRLPRPRPRPTRNPRP, the “shrunken log2 fold change” value is reported as -0.0437. In the case of RRIRWRPPRLPRPRPRPTSTPRP, the “shrunken log2 fold change” value is reported as 0.0842. RRIRWRPPRLPRPRPRPTSVPRP was tested, and the “shrunken log2 fold change” value was 0.233. RRIRWRPPRLPRPRPRPTWIPRP was tested, and the “shrunken log2 fold change” value was 0.0497. RRIRWRPPRLPRPRPRPTWPPRP was tested, and the “shrunken log2 fold change” value was 0.466. RRIRWRPPRLPRPRPRPTWWPRP was tested, and the “shrunken log2 fold change” value was 0.79.
